Measured values as given in article PMC12169662, “De Novo-Designed APC/C Inhibitors Provide a Rationale for Targeting RING-Type E3 Ubiquitin Ligases” (Journal of Medicinal Chemistry, 2025).
Bridge positions count the residues as written; N and C are the ends. Square brackets hold non-standard residues; d marks the D form. Ends that are not written are not given here. R8 = C=CCCCCCC[C@@](C)(N)C(=O)O; S5 = C=CCCC[C@](C)(N)C(=O)O

Assays:
[1] = molecular target: T1, recombinant APC/C (anaphase promoting complex/cyclosome) (UniProt Q9NYG5 1-84; Q9UJX6 1-822; Q9H1A4 1-1944; P30260 1-824); test: cell-based or functional assay
T1 sequence (P30260 whole entry, looked up, chain 1 of 4): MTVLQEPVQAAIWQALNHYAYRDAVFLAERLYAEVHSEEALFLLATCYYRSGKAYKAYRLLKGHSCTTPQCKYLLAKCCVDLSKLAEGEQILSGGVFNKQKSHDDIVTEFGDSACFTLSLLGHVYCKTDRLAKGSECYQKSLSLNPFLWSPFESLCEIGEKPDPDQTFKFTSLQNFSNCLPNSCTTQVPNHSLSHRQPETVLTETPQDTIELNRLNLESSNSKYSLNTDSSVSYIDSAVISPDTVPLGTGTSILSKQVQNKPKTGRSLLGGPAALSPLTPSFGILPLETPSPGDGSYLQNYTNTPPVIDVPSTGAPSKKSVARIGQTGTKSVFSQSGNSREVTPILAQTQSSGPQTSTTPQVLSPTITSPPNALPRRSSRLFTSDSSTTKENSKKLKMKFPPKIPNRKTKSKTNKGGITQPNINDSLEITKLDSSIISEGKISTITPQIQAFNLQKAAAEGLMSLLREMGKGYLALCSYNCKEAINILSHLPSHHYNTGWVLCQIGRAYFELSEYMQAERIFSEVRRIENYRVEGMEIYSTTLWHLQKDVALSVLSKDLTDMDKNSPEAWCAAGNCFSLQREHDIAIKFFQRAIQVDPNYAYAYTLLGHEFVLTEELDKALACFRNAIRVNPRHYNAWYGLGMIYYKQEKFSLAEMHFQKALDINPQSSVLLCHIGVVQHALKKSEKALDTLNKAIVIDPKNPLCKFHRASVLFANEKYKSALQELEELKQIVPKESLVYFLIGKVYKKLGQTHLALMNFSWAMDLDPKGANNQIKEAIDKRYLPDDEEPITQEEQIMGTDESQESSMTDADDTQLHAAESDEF
T1 sequence (Q9H1A4 whole entry, looked up, chain 2 of 4): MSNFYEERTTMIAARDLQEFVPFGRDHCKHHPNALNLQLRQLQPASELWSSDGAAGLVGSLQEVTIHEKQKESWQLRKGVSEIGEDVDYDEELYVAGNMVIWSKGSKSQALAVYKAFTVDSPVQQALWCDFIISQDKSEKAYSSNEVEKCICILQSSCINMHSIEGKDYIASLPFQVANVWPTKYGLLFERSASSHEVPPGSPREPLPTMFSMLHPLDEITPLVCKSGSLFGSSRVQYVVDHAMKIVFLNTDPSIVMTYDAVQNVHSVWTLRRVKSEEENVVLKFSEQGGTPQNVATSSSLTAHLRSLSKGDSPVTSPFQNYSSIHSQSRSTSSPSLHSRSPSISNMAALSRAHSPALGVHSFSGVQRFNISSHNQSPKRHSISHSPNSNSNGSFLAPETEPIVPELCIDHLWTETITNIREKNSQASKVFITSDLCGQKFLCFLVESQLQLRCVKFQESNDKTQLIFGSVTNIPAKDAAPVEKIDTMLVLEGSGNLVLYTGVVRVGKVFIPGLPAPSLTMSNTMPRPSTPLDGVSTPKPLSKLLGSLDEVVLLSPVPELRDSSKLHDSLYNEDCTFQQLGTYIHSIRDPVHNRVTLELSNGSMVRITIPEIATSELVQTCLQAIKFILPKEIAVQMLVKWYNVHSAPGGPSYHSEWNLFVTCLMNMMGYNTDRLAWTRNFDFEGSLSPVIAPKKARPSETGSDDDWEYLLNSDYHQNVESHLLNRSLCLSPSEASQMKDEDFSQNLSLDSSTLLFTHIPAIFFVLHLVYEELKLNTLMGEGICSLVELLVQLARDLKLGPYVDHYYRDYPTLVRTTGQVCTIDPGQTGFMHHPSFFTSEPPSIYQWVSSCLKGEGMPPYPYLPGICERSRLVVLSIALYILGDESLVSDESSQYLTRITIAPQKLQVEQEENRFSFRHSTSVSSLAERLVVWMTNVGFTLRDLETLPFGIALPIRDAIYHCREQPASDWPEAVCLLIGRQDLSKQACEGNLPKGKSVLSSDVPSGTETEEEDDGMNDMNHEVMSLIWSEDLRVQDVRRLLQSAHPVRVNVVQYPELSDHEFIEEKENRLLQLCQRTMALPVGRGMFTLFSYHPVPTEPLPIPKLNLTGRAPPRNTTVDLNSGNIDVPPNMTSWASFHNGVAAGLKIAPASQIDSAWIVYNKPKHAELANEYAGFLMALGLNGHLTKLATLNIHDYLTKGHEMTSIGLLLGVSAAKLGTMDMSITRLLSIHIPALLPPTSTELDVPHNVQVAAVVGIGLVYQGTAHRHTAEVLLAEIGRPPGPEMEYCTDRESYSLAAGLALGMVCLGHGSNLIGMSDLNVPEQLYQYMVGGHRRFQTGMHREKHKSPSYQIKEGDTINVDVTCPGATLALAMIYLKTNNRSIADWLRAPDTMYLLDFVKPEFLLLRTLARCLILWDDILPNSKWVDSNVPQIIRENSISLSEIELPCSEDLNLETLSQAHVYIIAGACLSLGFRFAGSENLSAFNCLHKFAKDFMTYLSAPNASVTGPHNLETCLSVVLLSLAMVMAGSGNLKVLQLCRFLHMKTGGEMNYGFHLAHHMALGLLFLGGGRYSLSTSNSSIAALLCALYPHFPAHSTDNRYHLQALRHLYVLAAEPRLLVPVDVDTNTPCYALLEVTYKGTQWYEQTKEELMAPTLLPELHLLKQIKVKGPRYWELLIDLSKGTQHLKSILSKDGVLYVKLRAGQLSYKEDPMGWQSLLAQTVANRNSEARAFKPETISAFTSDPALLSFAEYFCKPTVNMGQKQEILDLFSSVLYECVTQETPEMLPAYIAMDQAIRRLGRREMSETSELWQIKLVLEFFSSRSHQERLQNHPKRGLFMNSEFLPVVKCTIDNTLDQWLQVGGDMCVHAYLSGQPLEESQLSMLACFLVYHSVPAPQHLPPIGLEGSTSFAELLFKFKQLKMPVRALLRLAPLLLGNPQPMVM
T1 sequence (Q9UJX6 whole entry, looked up, chain 3 of 4): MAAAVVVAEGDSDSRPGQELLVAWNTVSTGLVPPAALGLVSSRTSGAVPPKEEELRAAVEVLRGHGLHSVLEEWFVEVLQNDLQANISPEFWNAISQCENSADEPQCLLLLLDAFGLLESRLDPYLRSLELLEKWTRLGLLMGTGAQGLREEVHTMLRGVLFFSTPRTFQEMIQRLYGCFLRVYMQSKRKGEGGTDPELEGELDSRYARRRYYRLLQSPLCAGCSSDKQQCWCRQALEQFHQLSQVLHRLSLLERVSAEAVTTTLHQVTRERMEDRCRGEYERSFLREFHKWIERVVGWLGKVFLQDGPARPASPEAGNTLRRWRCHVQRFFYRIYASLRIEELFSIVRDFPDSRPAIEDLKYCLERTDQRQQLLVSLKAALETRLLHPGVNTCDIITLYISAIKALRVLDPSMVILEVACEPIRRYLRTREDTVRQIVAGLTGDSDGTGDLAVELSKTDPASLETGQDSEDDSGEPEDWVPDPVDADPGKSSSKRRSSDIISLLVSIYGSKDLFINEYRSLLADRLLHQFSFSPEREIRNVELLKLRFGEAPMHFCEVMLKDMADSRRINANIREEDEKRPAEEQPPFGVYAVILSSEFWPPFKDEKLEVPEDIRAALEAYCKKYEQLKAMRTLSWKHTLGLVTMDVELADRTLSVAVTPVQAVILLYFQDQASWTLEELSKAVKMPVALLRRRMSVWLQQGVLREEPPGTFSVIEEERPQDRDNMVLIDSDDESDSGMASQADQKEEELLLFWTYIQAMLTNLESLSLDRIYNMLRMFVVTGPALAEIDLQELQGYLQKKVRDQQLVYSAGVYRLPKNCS
T1 sequence (Q9NYG5 whole entry, looked up, chain 4 of 4): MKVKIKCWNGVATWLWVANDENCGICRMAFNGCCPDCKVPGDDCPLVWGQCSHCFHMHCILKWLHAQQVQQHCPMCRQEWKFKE

[2] = molecular target: T1, recombinant APC/C (anaphase promoting …); test: enzyme kinetics (in vitro APC/C ubiquitination assay); 20 nM recombinant APC/C, 340 nM CDC20, UBA1, UBE2C K119R, ubiquitin; securin titrated from 50 nM to 5 μM with and without H6; initial velocity; 30 °C, 30 mM HEPES pH 7.4, 175 mM NaCl, 8 mM MgCl2; model for noncompetitive inhibition; details: both partners purified

B1: H6 (designed binder)
chain: EWW[R8]IKEIQR[S5]RRA
modifications: staple 4-11
[1]
  IC50 of in vitro APC/C ubiquitination of the substrate, H6 titrated from 0.01 to 100 μM; blocks E2 recruitment to the RING domain of APC/C: 1.96 µM
[2]
  Ki: 5.03 ± 0.79 µM
